This is an account of results in patent US20180086804A1 (COMMISSARIAT A L ENERGIE ATOMIQUE ET AUX ENERGIES …, published 2018).

Where two headings read alike, the source gives them in different places. No end group written: not given here.

Assay [1] has as its target T1, HLA-DR3 (HLA-DRB1*03:01) (human).
T1 construct: mature; purified from homozygous EBV-transformed lymphoblastoid cells with antibody L243
Put plainly: competition ELISA vs biotin-MT 2-16.

Assay [2] deals with T2, HLA-DR1 (HLA-DRB1*01:01) (human).
T2 construct: mature; class II HLA molecule purified from homozygous EBV-transformed lymphoblastoid cells with antibody L243
Put plainly: competition ELISA vs biotin-HA 306-318. (In general: An ELISA detects its analyte on a solid surface through an enzyme-linked reagent.)

Assay [3] has as its target T3, HLA-DR4 (HLA-DRB1*04:01) (human).
T3 construct: mature; purified from homozygous EBV-transformed lymphoblastoid cells with antibody L243
Put plainly: competition ELISA vs biotin-HA 306-318.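 Further: HLA and competitor incubated 24 to 72 h, maximal signal taken from wells lacking competitor, background from wells lacking HLA molecule.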

Assay [4] deals with T4, HLA-DR11 (HLA-DRB1*11:01) (human).
T4 construct: mature; purified from homozygous EBV-transformed lymphoblastoid cells with antibody L243
Put plainly: competition ELISA vs biotin-HA 306-318.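 Further: HLA and competitor incubated 24 to 72 h, maximal signal taken from wells lacking competitor, background from wells lacking HLA molecule.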

For assay [5], the target named is T5, HLA-DR7 (HLA-DRB1*07:01) (human).
T5 construct: mature; purified from homozygous EBV-transformed lymphoblastoid cells with antibody L243
Put plainly: competition ELISA vs biotin-YKL.

Assay [6] addresses T6, HLA-DR13 (HLA-DRB1*13:01) (human).
T6 construct: mature; purified from homozygous EBV-transformed lymphoblastoid cells with antibody L243
Put plainly: competition ELISA vs biotin-B1 21-36.

For assay [7], the target named is T7, HLA-DR15 (HLA-DRB1*15:01) (human).
T7 construct: mature; purified from homozygous EBV-transformed lymphoblastoid cells with antibody L243
As to the kind of experiment: competition ELISA vs biotin-A3 152-166.

Assay [8] concerns the target T8, HLA-DRB5 (HLA-DRB5*01:01) (human).
T8 construct: mature; purified from homozygous EBV-transformed lymphoblastoid cells with antibody L243
As to the kind of experiment: competition ELISA vs biotin-HA 306-318.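 Further: HLA and competitor incubated 24 to 72 h, maximal signal taken from wells lacking competitor, background from wells lacking HLA molecule.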

Assay [9] has as its target T5, HLA-DR7 (HLA-DRB1*07:01). Put plainly: competition ELISA vs biotin-YKL. The source holds these as a separate data set.
In assay [10] the target is T1, HLA-DR3 (HLA-DRB1*03:01). As to the kind of experiment: competition ELISA vs biotin-MT 2-16. The source holds these as a separate data set.
Assay [11] concerns the target T7, HLA-DR15 (HLA-DRB1*15:01). As to the kind of experiment: competition ELISA vs biotin-A3 152-166. The source holds these as a separate data set.
Assay [12] deals with T2, HLA-DR1 (HLA-DRB1*01:01). Put plainly: competition ELISA vs biotin-HA 306-318.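 Further: HLA and competitor incubated 24 to 72 h, maximal signal taken from wells lacking competitor, background from wells lacking HLA molecule.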 This is another data set of the same source.
In assay [13] the target is T8, HLA-DRB5 (HLA-DRB5*01:01). Put plainly: competition ELISA vs biotin-HA 306-318. This is another data set of the same source.
For assay [14], the target named is T3, HLA-DR4 (HLA-DRB1*04:01). Put plainly: competition ELISA vs biotin-HA 306-318. The source holds these as a separate data set.
Assay [15] concerns the target T4, HLA-DR11 (HLA-DRB1*11:01). As to the kind of experiment: competition ELISA vs biotin-HA 306-318. This is another data set of the same source.
The target in assay [16] is T9, HLA-DP401 (HLA-DPB1*04:01) (human, UniProt P20036 29-222).
T9 construct: mature; purified from homozygous EBV-transformed lymphoblastoid cells with antibody B7/21
As to the kind of experiment: competition ELISA vs biotin-Oxy 271-287.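 Further: plates incubated 24–72 h, maximum binding defined by wells lacking competitor, background by wells lacking HLA molecule.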

In assay [17] the target is T10, HLA-DP402 (HLA-DPB1*04:02) (human, UniProt P20036 29-222).
T10 construct: mature; purified from homozygous EBV-transformed lymphoblastoid cells with antibody B7/21
Put plainly: competition ELISA vs biotin-Oxy 271-287.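 Further: plates incubated 24–72 h, maximum binding defined by wells lacking competitor, background by wells lacking HLA molecule.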

Assay [18] concerns the target T11, HLA-DRB3 (HLA-DRB3*01:01) (human).
T11 construct: mature; purified from homozygous EBV-transformed lymphoblastoid cells with antibody L243
As to the kind of experiment: competition ELISA vs biotin-LOL 191-210.

With PKYLLGREVTGNMRA-NH2 [CCNB1 189-203], the relative affinity with HLA-DR3 (HLA-DRB1*03:01) [1] turned out to be 764; with HLA-DR1 (HLA-DRB1*01:01) [2] it was 17; with HLA-DR4 (HLA-DRB1*04:01) [3], 34; in [4] it was 3.
For the molecule KDIYAYLRQLEEEQA-NH2 [CCNB1 172-186], the relative affinity was 1600 with HLA-DR7 (HLA-DRB1*07:01) [5]; 33 in the assay with HLA-DR3 (HLA-DRB1*03:01) [1]; 5 in [6]; 11 in [7]; 42 with HLA-DR1 (HLA-DRB1*01:01) [2]; 775 in assay [8]. Moreover, in [4], the relative affinity was determined as 1.
In the case of AKMPMKKEAKPSATG-NH2 [CCNB1 58-72], the figures for the relative affinity in assay [6] and in assay [4] were 683 and 40, respectively.
For SKINAENKAKINMAG-NH2 [CCNB1 9-23], the relative affinity with HLA-DR3 (HLA-DRB1*03:01) [1] was 22; in assay [6], 146; in assay [8], 1000; in assay [4], 490.
Turning to EPVKEEKLSPEPILV-NH2 [CCNB1 108-122], in the assay with HLA-DR1 (HLA-DRB1*01:01) [2], the relative affinity amounted to 894.
With TGKVIDKKLPKPLEK-NH2 [CCNB1 71-85], the relative affinity came out at 228 with HLA-DR3 (HLA-DRB1*03:01) [1] and 250 in assay [8].
PGLRPRTALGDIGNK-NH2 [CCNB1 37-51] registered a relative affinity in assay [6] of 422.
SDVILAVNDVDAEDG-NH2 [CCNB1 147-161]: the figures for the relative affinity (in assay [7]; with HLA-DR4 (HLA-DRB1*04:01) [3]) were 7 and 54, respectively.
With RALNFGLGRPLPLHF-NH2 [CCNB1 291-305], the relative affinity with HLA-DR7 (HLA-DRB1*07:01) [5] worked out at 3; in [7] it was 65; with HLA-DR1 (HLA-DRB1*01:01) [2], 1; in [8], 4; with HLA-DR4 (HLA-DRB1*04:01) [3] it was 1410; in [4] it was 1000.
As to QAVRPKYLLGREVTG-NH2 [CCNB1 185-199], the relative affinity in assay [6] stood at 4; with HLA-DR1 (HLA-DRB1*01:01) [2], 59; in assay [8], 1670; in the assay with HLA-DR4 (HLA-DRB1*04:01) [3], 260; in assay [4] it was 22.
QGLTKHMTVKNKYAT-NH2 [CCNB1 392-406]: the relative affinity in the assay with HLA-DR7 (HLA-DRB1*07:01) [5] was determined as 533; with HLA-DR3 (HLA-DRB1*03:01) [1], 408; in assay [6] it was 7; in assay [8], 47; with HLA-DR4 (HLA-DRB1*04:01) [3], 577; in assay [4] it was 693.
As to KHMTVKNKYATSKHA-NH2 [CCNB1 396-410], the relative affinity in the assay with HLA-DR7 (HLA-DRB1*07:01) [5] stood at 533; in assay [6], 9; in assay [7] it was 229; with HLA-DR1 (HLA-DRB1*01:01) [2], 7480; in the assay with HLA-DR4 (HLA-DRB1*04:01) [3] it was 408; in [4], 7.
For the molecule KKMLQLVGVTAMFIA-NH2 [CCNB1 241-255], the relative affinity was 0.1 with HLA-DR7 (HLA-DRB1*07:01) [9]; 15 in the assay with HLA-DR3 (HLA-DRB1*03:01) [10]; 1 in assay [11]; 3 in the assay with HLA-DR1 (HLA-DRB1*01:01) [12]; 1 in assay [13]; 1 in the assay with HLA-DR4 (HLA-DRB1*04:01) [14]. Further, the relative affinity was 90 in assay [15], 424 in [16] and 35 in [17].
Turning to SKIGEVDVEQHTLAK-NH2 [CCNB1 310-324], the relative affinity with HLA-DR3 (HLA-DRB1*03:01) [1] was determined as 306; in assay [6] it was 1800; in assay [8], 1500; in assay [4], 190.
Take NKVSEQLQAKMPMKK-NH2 [CCNB1 50-64]: the relative affinity in [6] stood at 258; in assay [8] it was 51; in [4] it was 1550.
As for QHYLSYTEESLLPVM-NH2 [CCNB1 366-380], the relative affinity with HLA-DR7 (HLA-DRB1*07:01) [9] came to 1; in assay [11], 47; in the assay with HLA-DR1 (HLA-DRB1*01:01) [12] it was 32; in assay [13] it was 471; in the assay with HLA-DR4 (HLA-DRB1*04:01) [14], 65; in [15] it was 55. The relative affinity was determined as 32 in assay [18], 0.2 in [16] and 0.3 in assay [17].
Turning to KPLEKVPMLVPVPVS-NH2 [CCNB1 81-95], the results for the relative affinity with HLA-DR1 (HLA-DRB1*01:01) [2] and with HLA-DR4 (HLA-DRB1*04:01) [3] were 524 and 500, respectively.
For the molecule LAVNDVDAEDGADPN-NH2 [CCNB1 151-165], the relative affinity in the assay with HLA-DR4 (HLA-DRB1*04:01) [3] came out at 667.
For the molecule NKYATSKHAKISTLP-NH2 [CCNB1 402-416], the relative affinity is 9 with HLA-DR7 (HLA-DRB1*07:01) [5]; 367 in the assay with HLA-DR1 (HLA-DRB1*01:01) [2]; 1730 in [8]; 707 in the assay with HLA-DR4 (HLA-DRB1*04:01) [3]; 4 in assay [4].
SPMETSGCAPAEEDL-NH2 [CCNB1 128-142] had a relative affinity with HLA-DR1 (HLA-DRB1*01:01) [2] of 3590.
Consider DRFMQNNCVPKKMLQ-NH2 [CCNB1 231-245], for which the relative affinity turned out to be 11 with HLA-DR1 (HLA-DRB1*01:01) [2], 1580 in assay [8], 52 with HLA-DR4 (HLA-DRB1*04:01) [3] and 2000 in [4].
EDLCQAFSDVILAVN-NH2 [CCNB1 140-154]: the relative affinity in the assay with HLA-DR3 (HLA-DRB1*03:01) [1] worked out at 161; in [7], 207; with HLA-DR4 (HLA-DRB1*04:01) [3], 1110.
As for GEWTPTLQHYLSYTE-NH2 [CCNB1 359-373], the relative affinity amounted to 0.4 with HLA-DR7 (HLA-DRB1*07:01) [5]; 0.2 in assay [7]; 548 with HLA-DR1 (HLA-DRB1*01:01) [2]; 224 in assay [8]; 500 in the assay with HLA-DR4 (HLA-DRB1*04:01) [3]; 22 in assay [4].
For RQLEEEQAVRPKYLL-NH2 [CCNB1 179-193], the relative affinity in the assay with HLA-DR7 (HLA-DRB1*07:01) [5] was determined as 271; in [6], 943; with HLA-DR1 (HLA-DRB1*01:01) [2] it was 9000; in [8], 2160.
Consider GAFCLALKILDNGEW-NH2 [CCNB1 347-361], for which the relative affinity is 1 in assay [7] and 9 in [4].
Regarding LDYDMVHFPPSQIAA-NH2 [CCNB1 332-346], the relative affinity was determined as 20 with HLA-DR7 (HLA-DRB1*07:01) [5]; 36 in assay [7]; 224 with HLA-DR1 (HLA-DRB1*01:01) [2]; 1580 in assay [8]; 289 in the assay with HLA-DR4 (HLA-DRB1*04:01) [3]; 511 in [4].
Consider EQLQAKMPMKKEAKP-NH2 [CCNB1 54-68], for which the relative affinity with HLA-DR7 (HLA-DRB1*07:01) [5] amounted to 808; with HLA-DR1 (HLA-DRB1*01:01) [2] it was 3740; in assay [8] it was 35; in assay [4] it was 1410.
TALGDIGNKVSEQLQ-NH2 [CCNB1 43-57]: the values for the relative affinity in assay [6] and in assay [7] were 1790 and 300, respectively.
